Laboratory results published in the nanobody polyreactivity screen of Harvey et al. (2022).

Assay: yeast display, Sf9 membrane polyspecificity reagent, FACS + sequencing; frameworks hold sequencing errors
Method in brief: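 Polyreactivity labels are assigned by the sorting gate from which each nanobody was recovered. The gates were low and high (top ~1%), set on anti-HA fluorescence for expression and streptavidin fluorescence for reagent binding. Before sorting, galactose-induced (36–48 hours) yeast display cells were stained for 1 hour at 4 °C with 10% biotinylated, detergent-solubilized Sf9 membrane reagent.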

Sequence | polyreactivity (PSR sort gate)
QVQLVESGGGLVQAGGSLRLSCAASGFIFRLYAMGWYRQAPGKERELVAALSSGTSTYYADSVKGRFTISRDNAKNTVYLQMNSLKPEDSAVYYCAAVPRVNWSRYVYFWYDYWGQGTQVTVSS | high polyreactivity
QVQLVESGGGLVQAGGSLRLTCAASGSTFSSYGMGWYRQAPGKERELVASITIRGGSTYYADSVKGRFTISRDNAKNTVYLQMNSLKPEDTAVYYCAADVTNRGTWVIYGYYYWGQGTQVTVSS | low polyreactivity
QVQLVESGGGLVQAGGSLRLSCAASGRTYSNAMGWYRQAPGKERELVAAITWSGGRTYYADSVKGRFTISRDNAKNTVYLQMNSLKPEDTAVYYCAADSIWWPLWFDYWGQGTQVTVSS | high polyreactivity
QVQLVESGGGLVQAGGSLRLSCAASGFIFPVYAMGWYTQGGGKERELVADISSDGSTNYADSVKGRFTISRDNAKNTVYLQMNSLKPEDTAVYYCAREDNLRHQSDSRYDYWGQGTQVTVSS | low polyreactivity
QVQLVESGGGLVQAGGSLRLSCAASGSILLRYAMGWYRQAPGKERELVAAISYDGGGTYYADSVKGRFTISRDNAKNTVYLQMNSLKPEDTAVYYCAADGYSSSGTAYDYWGQGTQVTVSS | low polyreactivity
QVQLVESGGGLVQAGGSLRLSCAASGITFARYTMGWYRQAPGKERELVAAISWSGTSTYYADSVKGRFTISRDNAKNTVYLQMNSLKPEDTAVYYCAAGYSASRKVDYWGQGTQVTVSS | high polyreactivity
QVQLVESGGGLVQAGGSLRLSCAASGRTFAIYAMGWYRQAPGKERELVATIRGGSTYYADSVKGRFTISRDNAKNTVYLQMNSLKPEDTAVYYCAAGWYRYYGGFGYWGQGTQVTVSS | high polyreactivity
QVQLVESGGGLVQAGGSLRLSCAASGRIFTRYAMGWYRQAPGKERELVAVITRSGGSTYYADSVKGRFTISRDNAKNTVYLQMNSLKPEDTAVYYCNVDETGVLVAYSFDYWGQGTQVTVSS | low polyreactivity
QVQLVESGGGLVQAGGSLGLSCAASGFIFSSNAMGWYRQARGKERELVAAITSGGGRTYSADSVKRRFTISRDNAKNTVYLQKNSLKPEDTAVYYCNAEQWQSSEYGEWSKRDYWGQGTQVTVSS | low polyreactivity
QVQLVESGGGLVQAGGSLRLSCAASGRIFSRYTMVWYRQAPRKERELVAAISSSGGSTYYADSVKGRFTISRDNAKNTVYLQMNSLKQEDTAVYYCAARQYIGSPPHRRRFDYWGQGTQVTVSS | high polyreactivity
QVQLVESGGGLVQAGGSLRLSCAASGFTFVNYAMGWYRQAPGKERELVAAISFRSARTYYADSVKGRFTISRDNAKNNVYLQMNSLKPEDTAVYYCAARVSRRFDYWGQGTQVTVSS | high polyreactivity
QFQLVESGGGLVQAGGSLRLSCAASGFTFDFYAMGWYRQAPGKERELVAAISKNDGTTYYADSVKGRFTISRDNAKNTVYLQMNSLKQEDTAVYYCAAPNWRDYYSSGQGTQVTVSS | low polyreactivity
QVQLVESGGALVQAGGSLRLSCAASGSTFNRNAMGWYRPAPGKERELVAAISSRGGSTFYADSVMGRFTISRDNATNTVYLQMNSLKPEDTAVYYCNALIVSSWVRYDYWRQGTQVTVSS | high polyreactivity
QVQLVESGGGLVQAGGSLRLSCAASGFTFDLYAMGWYRQAPGKERELVAAISWSGGSTRYADSVKGRFTISRDNAKNTVYLQMNSLKPEDTAVYYCARQPRLYFKGKLYGYWGQGTQVTVSS | high polyreactivity
QVQLVESGGGLVQAGGSLRLSCAASGRTIGLYDMGWYRQAHGKERELVAGITRRGGRTYYADSVKGRFTISRDNAKNSVYLQMNSLKPEDTAVYYCAAGTIYLRHAQSPFDYWGQGTQGTVSS | high polyreactivity
QVQLVESGGGLVQAGGSLRLSCAASGIIFGWYAMGWYRKAPGKERELVAAISSGGRTNYADSVKGRFTISRDNAKNTVYLQMNSLKPEDTAVYYCAAAYIRGSRRYDYWGQGTQVTVSS | high polyreactivity
QVQLVESGGGLVQAGGSLRLSCAASGSTFSINAMGWYRQAPGKERELVAAITWRGVRTYYADSVKGRFTISRDNAKNTVYLQMNSLKPEDPAVYYCAAVPATSYPRRYVYAYYYWGQGTQVTVSS | high polyreactivity
